The numbers were not newly measured in publication PMC7587574, which cites them from elsewhere.

Like-named read-outs stand apart in the source and are kept apart here.

Data set [1] deals with κ-opioid receptor (Homo sapiens) (UniProt P41145).
Data set [2] addresses PACAP receptor (PAC1R) (Homo sapiens) (UniProt P41586).
For data set [3] the target is unchanged. The source holds these as a separate data set.

Sequence of PACAP receptor (PAC1R) (Homo sapiens) (P41586 21-468): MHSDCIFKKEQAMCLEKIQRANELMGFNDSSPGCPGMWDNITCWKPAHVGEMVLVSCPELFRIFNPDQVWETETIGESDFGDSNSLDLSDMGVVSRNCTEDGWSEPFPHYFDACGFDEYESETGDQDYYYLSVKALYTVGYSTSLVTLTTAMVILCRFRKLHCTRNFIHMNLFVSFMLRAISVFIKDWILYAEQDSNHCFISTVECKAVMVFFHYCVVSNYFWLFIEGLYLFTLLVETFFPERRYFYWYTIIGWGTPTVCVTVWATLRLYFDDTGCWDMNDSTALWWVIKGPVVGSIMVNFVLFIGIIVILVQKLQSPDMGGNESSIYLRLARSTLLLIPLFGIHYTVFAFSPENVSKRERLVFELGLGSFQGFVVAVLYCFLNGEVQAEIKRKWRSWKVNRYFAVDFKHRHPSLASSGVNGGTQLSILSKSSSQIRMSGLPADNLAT
Sequence of κ-opioid receptor (Homo sapiens) (P41145 whole entry): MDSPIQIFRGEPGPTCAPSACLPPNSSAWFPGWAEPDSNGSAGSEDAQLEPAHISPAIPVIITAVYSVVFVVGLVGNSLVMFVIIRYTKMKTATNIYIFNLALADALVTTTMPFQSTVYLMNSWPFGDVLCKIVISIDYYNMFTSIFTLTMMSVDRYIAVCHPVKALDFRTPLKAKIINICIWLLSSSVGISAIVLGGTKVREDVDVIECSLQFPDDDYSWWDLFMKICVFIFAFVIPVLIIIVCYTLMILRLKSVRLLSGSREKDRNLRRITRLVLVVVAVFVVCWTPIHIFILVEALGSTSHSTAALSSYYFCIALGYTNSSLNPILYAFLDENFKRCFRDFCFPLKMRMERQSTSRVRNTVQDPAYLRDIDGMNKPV
Sequence of PACAP (truncated) (P18509 137-169): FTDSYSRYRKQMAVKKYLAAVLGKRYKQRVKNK
Sequence of PACAP (P18509 82-129): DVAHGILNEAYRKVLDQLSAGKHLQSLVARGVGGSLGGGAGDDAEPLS

As to “dynorphin 13-mer fragment (from UniProt P01213)”, the Kd in data set [1] was 200 nM.
On to PACAP (from UniProt P18509), for which, in data set [2], the equilibrium dissociation constant (Kd) was 3 nM.
Take PACAP (truncated) (from UniProt P18509): the Kd in data set [3] was 18000 nM.

The Kd is the constant that tells how readily two partners part at equilibrium.
